Reference: PMC8322138, “BRCA2 binding through a cryptic repeated motif to HSF2BP oligomers does not impact meiotic recombination” (Nature Communications, 2021)
Positions count from the first letter of the chain named. Numbers in names are those of the source. Where “and” joins values, the source holds several entries; their conditions need not be identical. Identical values can stand only once. Ends that are not written are not given here.

Columns and labels:
GFP-HSF2BP = test: Co-immunoprecipitation of Flag-BRCA2 variants/fragments with GFP-HSF2BP WT; format: cell-based, human; details: transient HEK293T, anti-GFP beads, immunoblot
Text: (§1) Expression constructs for producing point mutation and truncation variants of HS2BP and BRCA2 in human cells were engineered as described before[16] in the PiggyBac vectors by Gibson assembly. For transient expression into HEK293T cells plasmid DNA was transfected using calcium precipitation method or PEI transfection. For stable integration into HeLa cells, PiggyBac expression vectors were co-lipofected together with PiggyBac transposase plasmid (hyPBase[45]) with Lipofectamine 3000 (Thermo Fisher).
(§2) Cells were washed twice in ice-cold PBS and lysed in situ in NETT buffer (100 mM NaCl, 50 mM Tris pH 7.5, 5 mM EDTA pH 8.0, 0.5% Triton-X100) supplemented immediately before use with protease inhibitor cocktail (Roche) and 0.4 mg/ml Pefabloc (Roche) (NETT++); 450 µl NETT++ buffer was used per 145 mm dish ES cells, 1 ml for HeLa and HEK293T. After 5–10 min, cells were scraped off and collected in 1.5 ml microcentrifuge tubes; lysis was continued for additional 20–30 min on ice, then mixtures were centrifuged (15 min, 4 °C, 14,000 × g) and the supernatant (input) was added to washed anti-GFP beads (Chromotek). Beads and lysates were incubated 2–4 h at 4 °C while rotating, washed three times in NETT++ buffer and bound proteins were eluted by boiling in 2x Sample buffer. Immunoblotting was performed following standard procedures with the following antibodies: anti-GFP mAb (Roche, #11814460001), anti-GFP pAb (Abcam #ab290 and Invitrogen #A11122), anti-RAD51[46], anti-BRCA2 mAb Ab1 OP-95 (Millipore #OP95), anti-BRCA2 (Abcam #27976), anti-Flag (M2 antibody, Sigma, F3165 and F1804). For quantitative immunoblotting fluorescently labeled secondary antibodies were used: anti-mouse CF680 (Sigma #SAB460199), anti-rabbit CF770 (Sigma #SAB460215); membranes were scanned using Odyssey CLx imaging system (LI-COR).

HSF2BP FL = molecular target: T1, HSF2BP FL (Homo sapiens, UniProt O75031); test: ITC of BRCA2 fragments with full-length HSF2BP; format: binding; details: discussion statement, read-out: affinity of BRCA2 for HSF2BP
T1 construct: Human full-length HSF2BP WT and R200T were expressed; 6xHis-TEV (N, cleaved yes); made in house; host or cells: E. coli BL21 DE3 Rosetta2
T1 sequence (O75031 1-334): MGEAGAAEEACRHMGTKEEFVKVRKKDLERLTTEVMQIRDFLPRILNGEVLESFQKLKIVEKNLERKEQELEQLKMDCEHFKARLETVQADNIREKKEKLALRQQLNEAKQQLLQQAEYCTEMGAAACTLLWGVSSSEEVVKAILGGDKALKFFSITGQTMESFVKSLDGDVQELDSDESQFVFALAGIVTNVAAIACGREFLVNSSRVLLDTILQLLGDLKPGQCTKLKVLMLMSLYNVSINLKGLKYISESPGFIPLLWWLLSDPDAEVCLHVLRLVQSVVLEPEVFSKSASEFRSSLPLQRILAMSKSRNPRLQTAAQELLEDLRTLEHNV
Text: Human full-length HSF2BP WT and R200T were expressed using a pETM11 (6xHis-TEV) expression vector in E. coli BL21 DE3 Rosetta2 cells, and purified as previously reported (Brandsma et al., Cell Rep 2019). The armadillo domain of HSF2BP, from aa 122 to aa 334, which we will further name ARM, was similarly expressed using a pETM11 (6xHis-TEV) expression vector in BL21 DE3 Rosetta2 cells and purified as full-length HSF2BP.
Human BRCA2 fragment F0 was expressed using a pET-22b expression vector as a fusion protein comprising BRCA2 from aa 2213 to aa 2342 (including mutation C2332T to avoid oxidation problems), a TEV site, a GB1 and 6xHis tag, in E. coli BL21 DE3 Star cells. The BRCA2 gene was optimized for expression in bacteria and synthesized by Genscript. In addition, smaller BRCA2 fragments were produced using the same strategy: FNMR and F15X corresponding to aa 2252 to aa 2342 and aa 2291 to aa 2343, respectively. The smallest fragment F15X∆12, from aa 2312 to aa 2342, was synthesized by Genecust.
ITC experiments were performed using a high-precision VP-ITC instrument (GE Healthcare) at 293 K. To characterize the interactions between HSF2BP and BRCA2 fragments (WT, variants), the proteins were dialyzed against 25 mM Tris pH 7.5, 250 mM NaCl, 5 mM β-mercaptoethanol. The HSF2BP (or ARM domain) was in the sample cell at 10–20 μM and was titrated by BRCA2 fragments at 40–100 μM, using 10 μL injections with 210 s intervals between each injection. The first 2 μL injection was ignored in the final data analysis. The integration of the peaks corresponding to each injection. the correction for the baseline and the fit were performed using the Origin 7.0 software provided by the manufacturer, to obtain the stoichiometry (N), dissociation constant (Kd), and enthalpy of complex formation (ΔH) for each interaction. Two replicates were performed for each experiment.

BRCA2 (Flag-F9) = test: Co-immunoprecipitation of GFP-HSF2BP variants with Flag-BRCA2 F9; format: cell-based, human; details: transient HEK293T / stable HeLa, anti-GFP beads, immunoblot
Text: as §1, §2

[1] = molecular target: T2, armadillo domain of HSF2BP, from aa 122 to aa 334 (ARM) (human, UniProt O75031 122-334); test: ITC; HSF2BP or ARM in the cell at 10-20 uM, BRCA2 fragment in the syringe at 40-100 uM; 293 K; 25 mM Tris pH 7.5, 250 mM NaCl, 5 mM beta-mercaptoethanol; two replicates; details: both partners purified
T2 construct: Free ARM is a dimer (SEC-MALS); four ARM with two F15X in the complex; A selenomethionine-labelled form was used for the deposited crystal structure; also called HSF2BP ARM; H3 (recombinant); source: E. coli BL21 DE3 Rosetta2, purified (HisTrap, TEV cleavage, SEC)
T2 sequence (looked up): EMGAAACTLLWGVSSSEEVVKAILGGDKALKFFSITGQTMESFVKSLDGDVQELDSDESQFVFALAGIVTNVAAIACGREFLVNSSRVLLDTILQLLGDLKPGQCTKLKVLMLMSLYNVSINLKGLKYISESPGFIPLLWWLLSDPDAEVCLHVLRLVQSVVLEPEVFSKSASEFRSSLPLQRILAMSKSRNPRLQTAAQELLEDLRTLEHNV

ARM domain of HSF2BP = molecular target: T3, ARM domain of HSF2BP (Homo sapiens, UniProt O75031); test: SEC-MALS of ARM free or bound to F15X; format: physicochemical
T3 construct: The armadillo domain of HSF2BP, from aa 122 to aa 334; 6xHis-TEV (N, cleaved yes); made in house; host or cells: E. coli BL21 DE3 Rosetta2
T3 sequence (O75031 122-334): T2 sequence (looked up)
Experimental: Size-exclusion chromatography (SEC) coupled to MALS was used in order to measure the molecular masses of the complexes in solution. Therefore, HSF2BP and ARM proteins were loaded in the presence and absence of the BRCA2 fragment F15X on a Superdex 200 10/300 GL (GE Healthcare) using a HPLC Shimadzu system coupled to MALS/QELS/UV/RI (Wyatt Technology). The chromatography buffer was 25 mM Tris-HCl buffer, pH 7.5, 250 mM NaCl, 5 mM β-mercaptoethanol. The proteins were injected at 0.8–1 mg/ml in 100 μl. Data were analyzed using the ASTRA software; a calibration was performed with BSA as a standard.

F15: Flag-tagged BRCA2 fragment N2288-T2337 (NLLNEFDRIIENQEKSLKASKSTPDGTIKDRRLFMHHVSLEPITCVPFRT; also: Flag tag, end not given here)
interaction with HSF2BP (co-precipitation) (GFP-HSF2BP): minimal interaction region

B1: BRCA2: BRCA2 (fragment F0 measured by ITC) (protein)
chain: STYSKDSENYFETEAVEIAKAFMEDDELTDSKLPSHATHSLFTCPENEEMVLSNSRIGKRRGEPLILVGEPSIKRNLLNEFDRIIENQEKSLKASKSTPDGTIKDRRLFMHHVSLEPITTVPFRTTKERQ
Kd (HSF2BP FL): 1 nM

B2: R200C: GFP-HSF2BP point mutant (protein)
chain: T1 sequence (O75031 1-334) with R200C
modifications: left off: GFP, end not stated, kept
notes: GFP-HSF2BP point mutant
binding to BRCA2 (co-precipitation) (BRCA2 (Flag-F9)): totally abolished binding

B3: R277E: GFP-HSF2BP point mutant (protein)
chain: T1 sequence (O75031 1-334) with R277E
modifications: left off: GFP, end not stated, kept
notes: GFP-HSF2BP point mutant
binding to BRCA2 (co-precipitation) (BRCA2 (Flag-F9)): strongly decreased binding

B4: S2309N: Flag-BRCA2-F9 variant (protein)
chain: GKRRGEPLILVGEPSIKRNLLNEFDRIIENQEKSLKASKNTPDGTIKDRRLFMHHVSLEPITCVPFRT
modifications: left off: Flag, end not stated, kept
notes: Flag-BRCA2-F9 variant
interaction with HSF2BP (co-precipitation) (GFP-HSF2BP): either strongly decreased or abolished binding | interaction with HSF2BP (co-precipitation) (GFP-HSF2BP; listed as S2309): did not interact

B5: P2329L: Flag-BRCA2-F9 variant (protein)
chain: B4 chain with N40S, P60L
modifications: left off: Flag, end not stated, kept
notes: Flag-BRCA2-F9 variant
interaction with HSF2BP (co-precipitation) (GFP-HSF2BP): either strongly decreased or abolished binding | interaction with HSF2BP (co-precipitation) (GFP-HSF2BP; listed as P2329): did not interact

B6: R2318Q: Flag-BRCA2-F9 variant (protein)
chain: B4 chain with N40S, R49Q
modifications: left off: Flag, end not stated, kept
notes: Flag-BRCA2-F9 variant
interaction with HSF2BP (co-precipitation) (GFP-HSF2BP): either strongly decreased or abolished binding | interaction with HSF2BP (co-precipitation) (GFP-HSF2BP; listed as R2318): did not interact

B7: L2304K: Flag-BRCA2-F9 variant (protein)
chain: B4 chain with L35K, N40S
modifications: left off: Flag, end not stated, kept
notes: Flag-BRCA2-F9 variant
interaction with HSF2BP (co-precipitation) (GFP-HSF2BP): either strongly decreased or abolished binding

B8: Human BRCA2 fragment FNMR (S2252-Q2342) (domain or fragment, UniProt P51587 2252-2342, looked up)
chain: SLFTCPENEEMVLSNSRIGKRRGEPLILVGEPSIKRNLLNEFDRIIENQEKSLKASKSTPDGTIKDRRLFMHHVSLEPITTVPFRTTKERQ
notes: BRCA2, human, residues 2252-2342; produced by the same strategy as F0 (C2332T); C2332T is stated for F0 and 'our construct'; FNMR was made 'using the same strategy'; source: E. coli BL21 DE3 Star, purified (HisTrap, TEV cleavage, SEC); not shown: GB1, C-terminal, cleaved; His6, C-terminal, cleaved
Kd [1]: 7.8 nM and 13 nM | dH [1]: -9.6 kcal/mol and -9.4 kcal/mol | stoichiometry N [1]: 0.47 and 0.51

B9: H3: HSF2BP fragment E122-V334, armadillo domain (protein)
chain: T2 sequence (looked up)
modifications: left off: His6, end not stated, cleaved
notes: HSF2BP fragment E122-V334, armadillo domain
binding to BRCA2 (co-precipitation) (BRCA2 (Flag-F9)): minimal interaction region | oligomeric state of ARM (ARM domain of HSF2BP; SEC-MALS and SEC-SAXS): dimeric | molecular weight of species in solution (ARM domain of HSF2BP; SEC-MALS, Superdex 200 10/300 GL, 25 mM Tris-HCl pH 7.5, 250 mM NaCl, 5 mM β-mercaptoethanol): 48 kDa

B10: Human BRCA2 fragment F15X (N2291-Q2342) (domain or fragment, UniProt P51587 2291-2342, looked up)
chain: NEFDRIIENQEKSLKASKSTPDGTIKDRRLFMHHVSLEPITTVPFRTTKERQ
notes: BRCA2, human, residues 2291-2342 (methods: aa 2291 to aa 2343); T2332 in the construct; The methods give aa 2291 to aa 2343, results and legend N2291-Q2342; A selenomethionine-labelled form was used for the deposited crystal structure; also called BRCA2 F15X; BRCA2 peptide; source: E. coli BL21 DE3 Star, purified (HisTrap, TEV cleavage, SEC); not shown: GB1, C-terminal, cleaved; His6, C-terminal, …
Kd [1]: 10 nM and 9.4 nM | dH [1]: -10.2 kcal/mol and -9.2 kcal/mol | stoichiometry N [1]: 0.33 and 0.4
